Test results as given in the nanobody polyreactivity screen of Harvey et al. (2022).

Assay: yeast display, Sf9 membrane polyspecificity reagent, FACS + sequencing; frameworks hold sequencing errors
Procedure, shortened: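 Galactose induction of a Saccharomyces cerevisiae BJ5465 synthetic nanobody display library ran 36–48 hours. The cells were then stained for 1 hour at 4 °C with 10% biotinylated, detergent-solubilized Sf9 membrane reagent, pulled down on streptavidin microbeads and FACS-sorted into low and high (top ~1%) gates on expression and reagent-binding fluorescence. Labels for polyreactivity follow the gate of origin.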

| Sequence | polyreactivity (PSR sort gate) |
| --- | --- |
| QVQLVESGGGLLQAGGTLRLSCAASGFIFGRYAMGWYRQAPGKERELVADISWNGGSTYYADYVKGRFTISRDNAKNTVYLQMNSLKPEDTAVYYCAADYYWASFKYPYLRPYDYWGQGTQVTVSS | high polyreactivity |
| QVQLVESGGGLLQAGVSLRLSCAASGFIFSYNTMGWYRQPPGKEREFVAAITYSGGSTYYADSVKWRFTSSRHNAKNSVYLQMNTLKPEDTAVYYCAAPYPRGYFFGDSPKGYGGGYWGQGTQVTVSS | high polyreactivity |
| QVQLVESGGGLVEAGGRLSLSCAASGSIFHRNAMGGFRQAPGTERELVAAITYSGGGTYYADSVKGRFTISRDNAKNTVYLQMNSLKPEDTAVYYCAADYKSKYSRYIYDYWGQGPQVTVSS | low polyreactivity |
| QVQLVESGGGLVEAGGSLRLICAASGSTFGWYAMGWSRQAPGKEREFVAAISWSGTSTYYADSVKGRFTISRDNAKNTVYLQMNSLKPEDTAVYYCNARSKRANRSLGLGYWGQGTQVTVSS | low polyreactivity |
| QVQLVESGGGLVEAGGSLRLSCAASGFTFGYYAMGWYRPAPGKERELVAAITNGGRTNYAYSVKGRFTISRDNAKNTVYLQMNSLKPEDTAVYFCATDHYWSREVYWGQGTQVTVSS | low polyreactivity |
| QVQLVESGGGLVEAGGSLRLSCAASGFTFRQYAMGWYRQAPGKEWELVAAISSGGSTYYADSVKGRFTISRDNAKNTDYVQMNSLKPEDTAVYYCAATHWAYSRVPYDYWGQGTQVTVSS | high polyreactivity |
| QVQLVESGGGLVEAGGSLRLSCAASGIIFVYNAMGWSRKAPGKERELVADINWRGDGTYYSDSVKGRFTISPDNAKNTVYLQMNSLKPEDTAVYYCNAVRFRPNSHYRPVGYEYWGQGTQVTESS | low polyreactivity |
| QVQLVESGGGLVEAGGSLRLSCAASGLTFEVYAMGWYRHAPGKERELVAVITSVGSTNYADSVKGRFTISRDNAKNTVYLQMNSLKPEDTAVYYCAADKWTVRRFNPYTYYRYDYWGQGTQVTVSS | low polyreactivity |
| QVQLVESGGGLVEAGGSLRLSCAASGRIFVHNAMGWYRHAPGKERELVAVITYSGGRTYYADSVKGRFTISRDNAKNTVYLQMNSLKPEDTAVYYCAVRAYKVSRYYYWGQGTLVTVSS | low polyreactivity |
| QVQLVESGGGLVEAGGSLRLSCAASGRTFGTYPMGWYRQAPGKERELVAAISSRGGTTYYADSVKGRFTISRDNAKNTVYLQMNSLKPEDTEVYYCARASWSITTVLSTMDYWGQGTQVTVSS | high polyreactivity |
| QVQLVESGGGLVEAGGSLRLTCAASGIIFYQYAMGWYRQAPGKERELVAAISSRGGSTYYADSVKGRFTISRDNAKNTVYLQMNSLKPEDTAVYYCAAGSTRSTDGYWGQGTQVTVSS | high polyreactivity |
| QVQLVESGGGLVHAGGILRLSCAASGRIFDYNVMGWYRQAPGKERELVADINGSGGGTNYADSVKGRFTISRDNAKNTVYLQMNSLKPEDTAVYYCAAEWYSYGARSSYGGSRNDYWGHGTQVTVSS | low polyreactivity |
| QVQLVESGGGLVHAGGILRLSCAASGSTFTPNAMGWYRQAPGKEREFVAAITYSGGTTYNADSVKGRFTISRDNAKKTVYLQRNRLKPEDTAVYYCAAVYFLLYYEAYYYWGQGTQVNVSS | low polyreactivity |
| QVQLVESGGGLVHAGGPLRLSCAASGFTFGEYAMGWYRPAPGKERELVAAITWSVGSTYYADSVKGRFTISRDNAKNTVYLEMNSLKPEDTAVYYCAAVLNWSRYGYWGQGTQVTVSS | low polyreactivity |
| QVQLVESGGGLVHAGGRLRLSCAASGRIFGRNAMGWYRPPPGKERELVAAITKSGGRTYYADSVKGRFSISRVNAKNNVYFQMICLKPEDNAVYYCNRIVTFGWQYDFDFWGQGTQVTVSS | high polyreactivity |
| QVQLVESGGGLVHAGGRLRLSCAAYGITFSSYAMGWYRQAPGKERELVAAITWSGTSTYYADSVKGRFTISRDNAKNTVYLQMNSLKPEYTAVSYCADEAGAPFSISHDYWGQGTQVTVSS | low polyreactivity |
| QVQLVESGGGLVHAGGSHRLSCAASGTMGCYRQAPGKEMELVAAISQSGGSTYYADSVKGRFTISRDNAKNTVYLQMNSLKPEATAVYYCAVDPRYGHPRRDYWGQGTQVTVSS | low polyreactivity |
| QVQLVESGGGLVHAGGSIRLSCSASRRIFGYNVMGWYRQAPGKERELVAAITSGDRTYYADSVKGRFTISRDNAKHTVYLQMNSLKPEDTAVYYCAARGDRRRYGSLMDSWGQGTQVTVSS | high polyreactivity |
| QVQLVESGGGLVHAGGSLRLSCAACGRIFGPYDMGWYRQAPGKEMELVAAISWSGGNTYYADSVKGRFTISLDNAKNTVYLQMNSLKPEDTAVYYCNADYYPSSYPYDYWGQGTQVTVSS | low polyreactivity |
| QVQLVESGGGLVHAGGSLRLSCAASGFIFAYYAMGWYRQAPGKERELVAAIDSAGRTTYADSVKGRFTISRDNAKNSVYLQMNSLKPEDTAVYYCAKFTPSVYKLSLQQGYDYWGQGNQVTVSS | high polyreactivity |
| QVQLVESGGGLVHAGGSLRLSCAASGFIFKRYPMGWNRPAHGKERELVAVITRSGGSTYYADSVKGRFTISRDNAKNTVYLQMNSLKPEDTAVYYCAAQGLLKFYWGQGTQVTVSS | high polyreactivity |
| QVQLVESGGGLVHAGGSLRLSCAASGFIFPGNAMGWYIQAPGKERDLVAAISNSGSRTYYADSVKGRFTISRDNAKNTVYLQMISLKPEDTAVYYCNADVHNRGWPYDYWGQGTQVTVSS | low polyreactivity |

| Sequence | polyreactivity (PSR sort gate) |
| --- | --- |
| QVQLVESGGGLVHAGGSLRLSCAASGFIFWDYAMGWYRQAPGKERELVAAISDSGGDTYYADSVKGRFTISRDNAKNTVNLQMNRLKPEDTAVYYCAAYSPSSRFDRRGYWGQGNQVTVSS | low polyreactivity |
| QVQLVESGGGLVHAGGSLRLSCAASGFIFYGNAMGWYRQAPGKERELVAAITWSSGSTYYADSVKGRFTISRYNAKNTVYLQMNSLSPEDTAVYYSNSEWSAKRPYPSRYYFNLGYWGQGTQVTESS | high polyreactivity |
| QVQLVESGGGLVHAGGSLRLSCAASGFILYSYAMGWYRQAPGKERELVAAINSTGSTYYADSVKGRFTISRDNAKNTVYLQMNSLKPEDTAFYYCATDPWYQTDLSYDTPYYYWGQGKQVTVSS | low polyreactivity |
| QVQLVESGGGLVHAGGSLRLSCAASGFTFAGYAMGWYRQAPGKERELVAGIRSSGARTYYADSVKGRFTISRDNAKNTVYLQMNSLKPDDTAVYYCAKTDGFYGGYGYWGQCTQVTVSS | low polyreactivity |
| QVQLVESGGGLVHAGGSLRLSCAASGFTFGPYAMGWYRQAPRKERELVAAITGSGGITYYADSVKGRFTISRDNAKNTVYLQKNSLKPEDTAVYYCAAEYPYVYGTYSDSYTEYDYWGQGTQVTVSS | low polyreactivity |
| QVQLVESGGGLVHAGGSLRLSCAASGFTFRSYAMGWYRQAPGKERELVAAISWSGGSTYYADSVKGRYTISRDNAKNTVYLQMNSLKPEDTAVYYCAAVRVSKYDYWGQGTQVTVSS | high polyreactivity |
| QVQLVESGGGLVHAGGSLRLSCAASGFTIPYYAMGWYRQAPGKERELVAAIRISGGSTYYADSVKGRFTISRDNAKNTVYLQMNSLKPEDTAVYYCAADYRYRSRFYYWGQGTQVTVSS | low polyreactivity |
| QVQLVESGGGLVHAGGSLRLSCAASGGIFSWNTMGWYRQAPGKERELVAAINWSSGRTYYADSVKGRFTISRDNAKYTVYLQMNSLKPEDTAVYYCAAKYYGSRKYDYWGQGTQVTVSS | high polyreactivity |
| QVQLVESGGGLVHAGGSLRLSCAASGGIFYVNAMGWYRQAPGKERELVADIRYSGTSTYYADSVKGRFTISRDNAKNTVYLQMNSLKPEDTAVYYCAVDAWDTTHVYEQGAERDSWGQGTQVTVSS | low polyreactivity |
| QVQLVESGGGLVHAGGSLRLSCAASGIIFDDYAMGSYRQPPGKERELVAAISGRGGRTYYADSVKGRFTISRDNAKNTVYLQMNSLKPEDTAVYYCAGGGRVRYDYWGQGTQVTVSS | low polyreactivity |
| QVQLVESGGGLVHAGGSLRLSCAASGIIFGSYAMGWYRQAPGKERELVAAITRSGGRTYYADSVKGRFTISRDNAKNTVYLQMNSLKPEDTAVYYCAADRGYRGATGKYDSWGQGTEVTVSS | high polyreactivity |
| QVQLVESGGGLVHAGGSLRLSCAASGIIFPYNLMGWYRQAPGKERELVADITRGAASTYYADSVKGRFTISRVNAKNTVYFQMNRLKTEDTAVYFCNADGTWRTYNFWGQGTQVTVSS | high polyreactivity |
| QVQLVESGGGLVHAGGSLRLSCAASGIISGWNGMGWYRQAPGKERELVASIDKNGSTYYADSVKGRCTISRDNAKNTVYLQMISLKPEDTAVYYCASDVRYRGNREDYWGQGTQVNVSS | low polyreactivity |
| QVQLVESGGGLVHAGGSLRLSCAASGITFKWNDMGWYRQAPGKEREFVAAITGSTGSTFYADSVKGRFTISRDNAKNTVYLQMNSLKPEDTAVYYCAAGPWFYYWGQGTQVTVSS | low polyreactivity |
| QVQLVESGGGLVHAGGSLRLSCAASGLIFRAYAMGWYRQAPGKERELVAAITSSSGSTYYADSVKGRFTISRDIAKNTVYLEMNSLKPEDTAVSYCNAYSTFGWYDYWGQGTQVTVSS | low polyreactivity |
| QVQLVESGGGLVHAGGSLRLSCAASGRIFDGNTMGWYRQAPGKERELVAAISGGGSTDYADSVKGRFTISRDNAKNTVYLQMNSLKPEDTAVYYCAATTGPVPLKGDYWGQGTQVTVSS | low polyreactivity |
| QVQLVESGGGLVHAGGSLRLSCAASGRIFKNYVMGWYRQAPGKERELVAGISSSGGSTYYADSVKGRFTISRYNAKNTVYLQMNSLKPEDTAVYYCAADYTFAYYNFKMDYWGQVTQVTVSS | low polyreactivity |
| QVQLVESGGGLVHAGGSLRLSCAASGRIFKSYAMGWYRQAPGKEREFVAAISTRSSSTYYADSVKGRFTISRDNAKNTVYLQMNSLKPEDTAVYYCAKVYQTLPYYYPGDYWGQGTQVNVSS | low polyreactivity |
| QVQLVESGGGLVHAGGSLRLSCAASGRIFLYYVMGWYRQAPGKERELVAAITSGGSTYYADSVKGRFTISRDNAKNTVYLQMNSLKPEDTAVYYCNKVSYYRNEYWGQGTQVTVSS | high polyreactivity |
| QVQLVESGGGLVHAGGSLRLSCAASGRTFCGYAMGRYRHAPGKERELVATNSYSSGSTYYADSVKGRFTISRDNAMNTVYLQMNSLTPEDTAVYYCAARIRYFYRYDYWGQGTQVTVSS | high polyreactivity |
| QVQLVESGGGLVHAGGSLRLSCAASGRTFKIYAMGWYRQAPGKERELVATISWRGGSTYYADSVKGRFTISRDNAKNTVYLQMNSLKPEDTAVYYCAKALYVAGSAYRAGYGVRYDYWGQGTQVTVSS | low polyreactivity |
